The record followed here is article PMC5814804.

Read-outs that look alike come from different tables or passages of the source.

In assay [1] the target is Thermotoga maritima TsaB2D2 complex (Thermotoga maritima) (UniProt Q9WZX7). The assay is described as follows: ITC. For orientation: Isothermal titration calorimetry measures the heat released or taken up as one component is titrated into another.
Assay [2] has the same target. The assay is described as follows: ITC. This is another data set of the same source.
Assay [3] shares this target. The assay is described as follows: ITC. The source holds these as a separate data set.
For assay [4] the target is unchanged. The assay is described as follows: SEC. (In general: SEC sorts molecules by how far they enter the pores of the column.)
Assay [5] shares this target. The assay is described as follows: SEC. This is another data set of the same source.

Sequence of Thermotoga maritima TsaB2D2 complex (Thermotoga maritima) (Q9WZX7 whole entry, chain 1 of 2): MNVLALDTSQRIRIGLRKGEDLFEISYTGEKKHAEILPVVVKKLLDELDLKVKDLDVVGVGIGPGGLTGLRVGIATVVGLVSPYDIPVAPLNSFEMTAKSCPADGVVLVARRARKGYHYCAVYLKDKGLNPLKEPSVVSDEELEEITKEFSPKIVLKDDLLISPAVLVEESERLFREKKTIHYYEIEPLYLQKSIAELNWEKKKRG
Sequence of Thermotoga maritima TsaB2D2 complex (Thermotoga maritima) (Q9WXZ2 whole entry, chain 2 of 2, further chain): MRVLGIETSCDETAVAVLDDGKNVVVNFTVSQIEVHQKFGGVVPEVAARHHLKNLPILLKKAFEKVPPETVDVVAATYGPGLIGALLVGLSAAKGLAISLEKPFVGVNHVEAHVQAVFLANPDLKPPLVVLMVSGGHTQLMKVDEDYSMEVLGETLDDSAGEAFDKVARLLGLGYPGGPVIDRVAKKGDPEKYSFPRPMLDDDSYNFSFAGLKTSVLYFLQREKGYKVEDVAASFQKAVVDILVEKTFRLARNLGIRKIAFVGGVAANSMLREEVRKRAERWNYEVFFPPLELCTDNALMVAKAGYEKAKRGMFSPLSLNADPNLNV

Regarding “Thermotoga maritima TsaE (natural protein)”, the Kd (commonly the concentration at which binding is half-saturated) in assay [1] was determined as 1100 nM; in assay [2] it was 1300 nM; in assay [3] it was 340 nM. For the same substance, the results for the dH in assay [1], in assay [2] and in assay [3] were 1.54 kcal/mol, 11.9 kcal/mol and 7.44 kcal/mol, respectively. Moreover, the figures for the stoichiometry N in assay [1], in assay [2] and in assay [3] were 2.16, 2.11 and 2.72, respectively. Besides, the values for the stoichiometry N (TsaE per TsaB2D2) in assay [4] and in assay [5] were 1 and 2, respectively.

In assay [2], “Thermotoga maritima TsaE E108A mutant (natural protein)” came in with a Kd of 1100 nM and a dH of 9.3 kcal/mol. Besides, in assay [3], the Kd came to 2400 nM, the dH amounted to 11.9 kcal/mol and the stoichiometry N (commonly a count of units in the complex or per binding partner) was found to be 1.91.

For the substance “Thermotoga maritima TsaE T42A mutant (natural protein)”, in assay [2], the Kd was 1400 nM and the dH came out at 8 kcal/mol. In addition, in assay [3], the Kd turned out to be 1100 nM, the dH was found to be 10.3 kcal/mol and the stoichiometry N came out at 2.
